Test results reported in US20220298218A1 (ANTAG THERAPEUTICS, published 2022).
Where no end group is shown, it is not given here. The star is where a group is joined. C16 diacid = O=C(O)CCCCCCCCCCCCCCC(=O)*

The binders below were run against T1, human GIP receptor (human, UniProt P48546 22-466) (assay: cell-based or functional assay).
T1 sequence (looked up): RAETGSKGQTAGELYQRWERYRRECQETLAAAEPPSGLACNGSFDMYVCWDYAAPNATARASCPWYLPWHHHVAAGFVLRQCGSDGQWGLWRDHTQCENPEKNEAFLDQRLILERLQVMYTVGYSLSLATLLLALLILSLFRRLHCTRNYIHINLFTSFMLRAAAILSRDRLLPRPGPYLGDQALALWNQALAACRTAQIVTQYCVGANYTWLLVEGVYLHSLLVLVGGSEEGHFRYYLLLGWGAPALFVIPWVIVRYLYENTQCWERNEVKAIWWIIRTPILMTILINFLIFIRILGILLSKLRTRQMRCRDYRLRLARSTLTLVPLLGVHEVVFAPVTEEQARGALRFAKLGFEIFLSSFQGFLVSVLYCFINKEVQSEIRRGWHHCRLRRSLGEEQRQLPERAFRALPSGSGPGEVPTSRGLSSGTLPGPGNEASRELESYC

Row | Binder | cAMP agonism % Emax [%] | cAMP antagonism [nM] | cAMP antagonism % inhib [%] | cAMP antagonism pIC50
1 | EGTFISDYSIAKDKIK(C16 diacid)QQDFVNWLLAQKPSSGAPPPS-OH (N-terminus assumed; SMILES CC[C@H](C)[C@H](NC(=O)[C@H](CO)NC(=O)[C@H](Cc1ccc(O)cc1)NC(=O)[C@H](CC(=O)O)NC(=O)[C@H](CO)NC(=O)[C@@H](NC(=O)[C@H](Cc1ccccc1)NC(=O)[C@@H](NC(=O)CNC(=O)[C@@H](N)CCC(=O)O)[C@@H](C)O)[C@@H](C)CC)C(=O)N[C@@H](C)C(=O)N[C@@H](CCCCN)C(=O)N[C@@H](CC(=O)O)C(=O)N[C@@H](CCCCN)C(=O)N[C@H](C(=O)N[C@@H](CCCCNC(=O)CCCCCCCCCCCCCCC(=O)O)C(=O)N[C@@H](CCC(N)=O)C(=O)N[C@@H](CCC(N)=O)C(=O)N[C@@H](CC(=O)O)C(=O)N[C@@H](Cc1ccccc1)C(=O)N[C@H](C(=O)N[C@@H](CC(N)=O)C(=O)N[C@@H](Cc1c[nH]c2ccccc12)C(=O)N[C@@H](CC(C)C)C(=O)N[C@@H](CC(C)C)C(=O)N[C@@H](C)C(=O)N[C@@H](CCC(N)=O)C(=O)N[C@@H](CCCCN)C(=O)N1CCC[C@H]1C(=O)N[C@@H](CO)C(=O)N[C@@H](CO)C(=O)NCC(=O)N[C@@H](C)C(=O)N1CCC[C@H]1C(=O)N1CCC[C@H]1C(=O)N1CCC[C@H]1C(=O)N[C@@H](CO)C(=O)O)C(C)C)[C@@H](C)CC) [AT621] | 0 | 1.36 | 93 | 8.9
2 | EGTFISDYSIAMDKIK(C16 diacid)QQDFVNWLLEGGPSSGAPPPS-OH (N-terminus assumed; SMILES CC[C@H](C)[C@H](NC(=O)[C@H](CO)NC(=O)[C@H](Cc1ccc(O)cc1)NC(=O)[C@H](CC(=O)O)NC(=O)[C@H](CO)NC(=O)[C@@H](NC(=O)[C@H](Cc1ccccc1)NC(=O)[C@@H](NC(=O)CNC(=O)[C@@H](N)CCC(=O)O)[C@@H](C)O)[C@@H](C)CC)C(=O)N[C@@H](C)C(=O)N[C@@H](CCSC)C(=O)N[C@@H](CC(=O)O)C(=O)N[C@@H](CCCCN)C(=O)N[C@H](C(=O)N[C@@H](CCCCNC(=O)CCCCCCCCCCCCCCC(=O)O)C(=O)N[C@@H](CCC(N)=O)C(=O)N[C@@H](CCC(N)=O)C(=O)N[C@@H](CC(=O)O)C(=O)N[C@@H](Cc1ccccc1)C(=O)N[C@H](C(=O)N[C@@H](CC(N)=O)C(=O)N[C@@H](Cc1c[nH]c2ccccc12)C(=O)N[C@@H](CC(C)C)C(=O)N[C@@H](CC(C)C)C(=O)N[C@@H](CCC(=O)O)C(=O)NCC(=O)NCC(=O)N1CCC[C@H]1C(=O)N[C@@H](CO)C(=O)N[C@@H](CO)C(=O)NCC(=O)N[C@@H](C)C(=O)N1CCC[C@H]1C(=O)N1CCC[C@H]1C(=O)N1CCC[C@H]1C(=O)N[C@@H](CO)C(=O)O)C(C)C)[C@@H](C)CC) [AT626] | 0 | 4.47 | 100 | 8.4
3 | EGTFISDYSIAMDKIK(C16 diacid)QQDFVNWLLEQKPSSGAPPPS-OH (N-terminus assumed; SMILES CC[C@H](C)[C@H](NC(=O)[C@H](CO)NC(=O)[C@H](Cc1ccc(O)cc1)NC(=O)[C@H](CC(=O)O)NC(=O)[C@H](CO)NC(=O)[C@@H](NC(=O)[C@H](Cc1ccccc1)NC(=O)[C@@H](NC(=O)CNC(=O)[C@@H](N)CCC(=O)O)[C@@H](C)O)[C@@H](C)CC)C(=O)N[C@@H](C)C(=O)N[C@@H](CCSC)C(=O)N[C@@H](CC(=O)O)C(=O)N[C@@H](CCCCN)C(=O)N[C@H](C(=O)N[C@@H](CCCCNC(=O)CCCCCCCCCCCCCCC(=O)O)C(=O)N[C@@H](CCC(N)=O)C(=O)N[C@@H](CCC(N)=O)C(=O)N[C@@H](CC(=O)O)C(=O)N[C@@H](Cc1ccccc1)C(=O)N[C@H](C(=O)N[C@@H](CC(N)=O)C(=O)N[C@@H](Cc1c[nH]c2ccccc12)C(=O)N[C@@H](CC(C)C)C(=O)N[C@@H](CC(C)C)C(=O)N[C@@H](CCC(=O)O)C(=O)N[C@@H](CCC(N)=O)C(=O)N[C@@H](CCCCN)C(=O)N1CCC[C@H]1C(=O)N[C@@H](CO)C(=O)N[C@@H](CO)C(=O)NCC(=O)N[C@@H](C)C(=O)N1CCC[C@H]1C(=O)N1CCC[C@H]1C(=O)N1CCC[C@H]1C(=O)N[C@@H](CO)C(=O)O)C(C)C)[C@@H](C)CC) [AT625] | 0 | 3.98 | 93 | 8.4
4 | EGTFISDYSIAMDKIK(C16 diacid)QQDFVEWLLAQAPSSGAPPPS-OH (N-terminus assumed; SMILES CC[C@H](C)[C@H](NC(=O)[C@H](CO)NC(=O)[C@H](Cc1ccc(O)cc1)NC(=O)[C@H](CC(=O)O)NC(=O)[C@H](CO)NC(=O)[C@@H](NC(=O)[C@H](Cc1ccccc1)NC(=O)[C@@H](NC(=O)CNC(=O)[C@@H](N)CCC(=O)O)[C@@H](C)O)[C@@H](C)CC)C(=O)N[C@@H](C)C(=O)N[C@@H](CCSC)C(=O)N[C@@H](CC(=O)O)C(=O)N[C@@H](CCCCN)C(=O)N[C@H](C(=O)N[C@@H](CCCCNC(=O)CCCCCCCCCCCCCCC(=O)O)C(=O)N[C@@H](CCC(N)=O)C(=O)N[C@@H](CCC(N)=O)C(=O)N[C@@H](CC(=O)O)C(=O)N[C@@H](Cc1ccccc1)C(=O)N[C@H](C(=O)N[C@@H](CCC(=O)O)C(=O)N[C@@H](Cc1c[nH]c2ccccc12)C(=O)N[C@@H](CC(C)C)C(=O)N[C@@H](CC(C)C)C(=O)N[C@@H](C)C(=O)N[C@@H](CCC(N)=O)C(=O)N[C@@H](C)C(=O)N1CCC[C@H]1C(=O)N[C@@H](CO)C(=O)N[C@@H](CO)C(=O)NCC(=O)N[C@@H](C)C(=O)N1CCC[C@H]1C(=O)N1CCC[C@H]1C(=O)N1CCC[C@H]1C(=O)N[C@@H](CO)C(=O)O)C(C)C)[C@@H](C)CC) [AT623] | 0 | 3.16 | 98 | 8.5
5 | EGTFISDYSIASDKIK(C16 diacid)QQDFVNWLLAQKPSSGAPPPS-OH (N-terminus assumed; SMILES CC[C@H](C)[C@H](NC(=O)[C@H](CO)NC(=O)[C@H](Cc1ccc(O)cc1)NC(=O)[C@H](CC(=O)O)NC(=O)[C@H](CO)NC(=O)[C@@H](NC(=O)[C@H](Cc1ccccc1)NC(=O)[C@@H](NC(=O)CNC(=O)[C@@H](N)CCC(=O)O)[C@@H](C)O)[C@@H](C)CC)C(=O)N[C@@H](C)C(=O)N[C@@H](CO)C(=O)N[C@@H](CC(=O)O)C(=O)N[C@@H](CCCCN)C(=O)N[C@H](C(=O)N[C@@H](CCCCNC(=O)CCCCCCCCCCCCCCC(=O)O)C(=O)N[C@@H](CCC(N)=O)C(=O)N[C@@H](CCC(N)=O)C(=O)N[C@@H](CC(=O)O)C(=O)N[C@@H](Cc1ccccc1)C(=O)N[C@H](C(=O)N[C@@H](CC(N)=O)C(=O)N[C@@H](Cc1c[nH]c2ccccc12)C(=O)N[C@@H](CC(C)C)C(=O)N[C@@H](CC(C)C)C(=O)N[C@@H](C)C(=O)N[C@@H](CCC(N)=O)C(=O)N[C@@H](CCCCN)C(=O)N1CCC[C@H]1C(=O)N[C@@H](CO)C(=O)N[C@@H](CO)C(=O)NCC(=O)N[C@@H](C)C(=O)N1CCC[C@H]1C(=O)N1CCC[C@H]1C(=O)N1CCC[C@H]1C(=O)N[C@@H](CO)C(=O)O)C(C)C)[C@@H](C)CC) [AT622] | 14 | 31.6 | 77 | 7.5
6 | EGTFISDYSIAMDKIK(C16 diacid)QQDFVNWLEAQKPSSGAPPPS-OH (N-terminus assumed; SMILES CC[C@H](C)[C@H](NC(=O)[C@H](CO)NC(=O)[C@H](Cc1ccc(O)cc1)NC(=O)[C@H](CC(=O)O)NC(=O)[C@H](CO)NC(=O)[C@@H](NC(=O)[C@H](Cc1ccccc1)NC(=O)[C@@H](NC(=O)CNC(=O)[C@@H](N)CCC(=O)O)[C@@H](C)O)[C@@H](C)CC)C(=O)N[C@@H](C)C(=O)N[C@@H](CCSC)C(=O)N[C@@H](CC(=O)O)C(=O)N[C@@H](CCCCN)C(=O)N[C@H](C(=O)N[C@@H](CCCCNC(=O)CCCCCCCCCCCCCCC(=O)O)C(=O)N[C@@H](CCC(N)=O)C(=O)N[C@@H](CCC(N)=O)C(=O)N[C@@H](CC(=O)O)C(=O)N[C@@H](Cc1ccccc1)C(=O)N[C@H](C(=O)N[C@@H](CC(N)=O)C(=O)N[C@@H](Cc1c[nH]c2ccccc12)C(=O)N[C@@H](CC(C)C)C(=O)N[C@@H](CCC(=O)O)C(=O)N[C@@H](C)C(=O)N[C@@H](CCC(N)=O)C(=O)N[C@@H](CCCCN)C(=O)N1CCC[C@H]1C(=O)N[C@@H](CO)C(=O)N[C@@H](CO)C(=O)NCC(=O)N[C@@H](C)C(=O)N1CCC[C@H]1C(=O)N1CCC[C@H]1C(=O)N1CCC[C@H]1C(=O)N[C@@H](CO)C(=O)O)C(C)C)[C@@H](C)CC) [AT624] | 0 | 100 | ~90 | ~7
